Measured values: paper PMC8152229, “Structural and Functional Peculiarities of Cytoplasmic Tropomyosin Isoforms, the Products of TPM1 and TPM4 Genes” (International Journal of Molecular Sciences, 2021)

Target: F-actin from rabbit skeletal muscle, stabilised by phalloidin (rabbit, UniProt P68135 1-377)
Experiment: co-sedimentation; 10 uM phalloidin-stabilized F-actin mixed with increasing Tpm (0 to 5.5-6 uM; up to almost 40 uM for Tpm1.12); 30 mM Hepes-Na pH 7.3, 200 mM NaCl; 40 min at 25 °C; 100,000 x g for 40 min; SDS-PAGE of pellet and supernatant; K50% = Tpm concentration at which actin is half-saturated
Conditions: both partners purified

| K50% | Binder |
| --- | --- |
| 14.9 µM | Tropomyosin isoform Tpm1.12 (natural protein, cytoplasmic LMW isoform Tpm1.12 of the TPM1 gene (~247 residues; exon 9c three residues shorter than 9d), exons 1b, 9c; has Cys-154; no N-terminal extension; source: E. coli C41(DE3), purified (anion exchange, HiTrap QHP); reduced with DTT before experiments) not shown |
| 1.07 µM | Tropomyosin isoform Tpm4.2 (natural protein, cytoplasmic LMW isoform Tpm4.2 of the TPM4 gene (~247 residues), exons 1b, 9d; an N-terminal extension is stated only for the HMW isoforms; source: E. coli C41(DE3), purified (anion exchange, HiTrap QHP); reduced with DTT before experiments) not shown |
| 0.4 µM | Tropomyosin isoform Tpm1.7 with Ala-Ser N-terminal extension (natural protein, Ala-Ser N-terminal extension that mimics natural N-terminal acetylation; cytoplasmic HMW isoform Tpm1.7 of the TPM1 gene (~284 residues), exons 1a2b, 6a, 9d; Alpha-helical coiled-coil dimer; source: E. coli C41(DE3), purified (anion exchange, HiTrap QHP)) not shown |
